This is an account of results in patent US20090068110A1, “ANTIBODIES TO INSULIN-LIKE GROWTH FACTOR RECEPTOR” (Genentech, Inc., priority 2006, published 2009).

Like-named read-outs stand apart in the source and are kept apart here.

In assay [1] the target is human IGF-1R-ECD (secreted recombinant extracellular domain, amino acids 1-902, tagged with 10 or 12 histidine residues at the carboxyl terminus) (human) (UniProt P08069). The assay can be described thus: BIACORE surface plasmon resonance: IGF-1R immobilized on CM5 chip (about 500 RU), Fab injected 500-3.1 nM, 25 C, 1:1 Langmuir model. For orientation: Surface plasmon resonance follows binding to a sensor surface in real time, without labels.

A further assay deals with cynomolgus-monkey IGF-1R. In words: BIACORE surface-plasmon resonance, cynomolgus-monkey IGF-1R. It is filed as binding. Particulars: IgG, FIG. 15. As to the method: Binding affinities of selected antibodies to IGF-1R were determined by surface plasmon resonance measurements on a BIACORE™ 3000 instrument (BIAcore, Inc.). Human, murine, or cynomolgus-monkey IGF-1R was immobilized at a density of about 500 RU on the flow cells of a PIONEER™ CM5 sensor chip. Immobilization was achieved by random coupling through amino groups using a protocol provided by the manufacturer. Sensorgrams were recorded for binding of anti-IGF-1R Fab or IgG to these surfaces by injection of a series of solutions ranging from 500 nM to 3.1 nM and 250 nM to 0.78 nM in two-fold increments, respectively. The signal from the reference cell was subtracted from the observed sensorgram. Kinetic constants were calculated by non-linear regression analysis of the data according to a 1:1 Languir binding model using software supplied by the manufacturer.

Another assay concerns MCF7 cells. The assay can be described thus: cell viability assay ([…]-GLO), MCF7. It is filed as cell-based, human. Particulars: for comparison of inhibitory effect on MCF7 proliferation / viability: in the presence of IGF-I. As for the experimental part: The different cell lines were cultured in their respective culture media at 37° C. in a humidified atmosphere of 5% CO2. Subsequently, cells were detached from tissue-culture flasks using the cell-dissociation solution, TRIPLE SELECT™ solution (InVitrogen, Carlsbad, Calif., USA), and centrifuged at 1000 rpm for five minutes. Detached cells were washed once with PBS, counted, and seeded in 96-well plates (Corning, N.Y., USA) at 2000 cells per well in 100 μL of culture media. After an overnight incubation at 37° C. in a humidified atmosphere of 5% CO2, the cell-culture medium was replaced with 50 μL of starvation medium consisting of serum-free RPMI 1640™ medium without phenol red. The cells were then starved for five hours in the incubator before addition of 25 μL of each anti-IGF-1R monoclonal antibody at various dilutions in serum-free RPMI 1640™ phenol red-free media. Later, 25 μL of phenol red-free RPMI 1640™ media supplemented with 4% of fetal bovine serum (FBS) (Sigma) with or without 4 ng/ml of human recombinant IGF-I were added on top of the 50 μL of antibody. The cells were then placed at 37° C. with 5% CO2 for 5 to 6 days. At the end of the assay, cell viability was measured using the […]-GLO® kit according to the manufacturer's instructions (Promega, Madison, Wis., USA).
For the cell viability assay, MCF7 cells were seeded onto 96-well plates at 2000 cells/well and incubated overnight at 37° C. in a humidified atmosphere of 5% CO2/95% air in RPMI 1640™ medium supplemented with 10% FBS (Sigma, St. Louis, Mo.) and 1% GLUTAMAX™ reagent (Promega, Madison, Wis.). The next day cells were starved in serum-free RPMI 1640™ medium (phenol red-free) for five hours followed by addition of serially diluted human chimeric versions of 9F2, 2B4, and 10H5, as well as h10H5.vX, for one hour. Subsequently, phenol red-free PRMI 1640™ medium supplemented with FBS or IGF-I was added to reach a final concentration of 1% FBS and 1 ng/mL IGF-I. Cells were then incubated with continuous IGF-1R antibody exposure. After five days, the cell viability was then determined using a […]-GLO™ kit (Promega, Madison, Wis.) according to the manufacturer's instructions.

Another assay has as its target IGF-1R (Homo sapiens, UniProt P08069). In words: antibody-induced IGF-1R down-regulation in MCF7 cells, Western blotting. Format: cell-based. Details: IGF-1R is normally localized at the plasma membrane of MCF7 cells; endogenous in cells; host or cells: MCF7. The note with it: 10 μg/ml, 1, 4, 8 or 24 hours, 10% serum. As for the experimental part: Further exploration of the mechanism of action of anti-IGF-1R antibodies was carried out by testing the ability of the antibodies of the invention, particularly human chimeric antibodies of 2B4, 9F2, 10H5, as well as human phage antibody YW95.6, to induce IGF-1R down-regulation. MCF7 cells were treated with various antibodies (10 μg/ml) for 1, 4, 8, or 24 hours in the presence of 10% serum-containing medium. The cell lysates were harvested, separated by SDS-PAGE, and analyzed for IGF-1R levels by Western blotting using an anti-IGF-1R beta-chain antibody (Cell Signaling Technology, Inc.; Beverly, Mass., USA) or anti-beta-actin antibody.
In a separate experiment, MCF7 cells were treated with serially diluted h10H5, and the cell lysates were analyzed for IGF-1R and IR levels using anti-IGF-1R and anti-IR β-chain antibodies at 1, 2, 4, and 8 hours post-continuous treatment.

The target of a further assay is T1, human IGF-1R-ECD (Homo sapiens, UniProt P08069).
T1 construct: containing the extracellular domain (ECD, amino acids 1-902) tagged with 10 or 12 histidine residues at the carboxyl terminus; His10 or His12 (C); made in house; host or cells: CHO cells
In words: phage-competition ELISA (phage IC50). Format: binding. As to the method: MAXISORP™ microtiter plates were coated with human IGF-1R-ECD at 5 μg/ml in PBS overnight and then blocked with CASEIN BLOCKER™ reagent (Pierce Biotechnology, Inc.). Phage from culture supernatants were incubated with serially diluted IGF-1R-ECD in PBS with 0.05% TWEEN 20™ surfactant (PBST) containing 1% bovine serum albumin (BSA) in a tissue-culture microtiter plate for 1 hour, after which 80 μl of the mixture was transferred to the target-coated wells for 15 minutes to capture unbound phage. The plate was washed with PBST, and HRP-conjugated anti-M13 (Amersham Pharmacia Biotech) was added (1:5000 in PBST containing 1% BSA) for 40 minutes. The plate was washed with PBST and developed by adding tetramethylbenzidine (TMB) substrate (Kirkegaard and Perry Laboratories, Gaithersburg, Md.). The absorbance at 450 nm was plotted as a function of target concentration in solution to determine an IC50. […] For the humanized hybridoma-derived clones, 2B4, 9F2, and 10H5, phage-Fab was used.
This assay was conducted as described in Section 1-II-A-(4) of this Example. For the YW95-phage-derived clones from the VH/VL phage library, phage-Fab-Zip was used.
(ELISA stands for enzyme-linked immunosorbent assay.)

B1: murine 10H5 Fab (Fab, V domains shown)
VH: QVQLQQPGAELVKPGASVTLSCKASGYTFTRFWIHWVKQRPGQGLEWIGEINPSNGRTNYNENFKNKATLTVDTSSSTAYMQLSSLTSEVSVVYYCARGGRLDQWGQGTT
VL: DIVMTQSQKFMSTSLGDRVSVTCKASQNVGSNVAWYQQKPGQSPEALIYSASYRYSGVPDRFTGSGSGTDFTLTISNVQSEDLAEYFCHQYNNYPYTFGGGTKVEIKR
A word on the Kd: it is a measure of binding affinity in units of concentration. B1: the Kd in assay [1] came out at 22 nM.

B2: chimeric 10H5: human chimeric version of murine 10H5, human IgG1 (antibody, V domains shown)
VH: QVQLQQPGAELVKPGASVTLSCKASGYTFTRFWIHWVKQRPGQGLEWIGEINPSNGRTNYNENFKNKATLTVDTSSSTAYMQLSSLTSEVSVVYYCARGGRLDQWGQGTT
VL: DIVMTQSQKFMSTSLGDRVSVTCKASQNVGSNVAWYQQKPGQSPEALIYSASYRYSGVPDRFTGSGSGTDFTLTISNVQSEDLAEYFCHQYNNYPYTFGGGTKVEIKR
Consider B2, for which the “binding to human versus cyno IGF-1R” value with cynomolgus-monkey IGF-1R was “comparable for human and cyno IGF-1R”. In the assay with MCF7 cells, the “comparison of inhibitory effect on MCF7 proliferation / viability” value is listed as “equivalent at decreasing the MCF7 cell viability”. The IGF-1R down-regulation entry with IGF-1R is “rapidly down-regulated and reached maximal reduction by eight hours”.

B3: YW95.6: human phage antibody clone against IGF-1R; VL SEQ ID NO:67, VH SEQ ID NO:71 (antibody, V domains shown)
VH: EVQLVESGGGLVQPGGSLRLSCAASGFTFSSYAMSWVRQAPGKGLEWVSRISPSGGSTYYADSVKGRFTISADTSKNTAYLQMNSLRAEDTAVYYCAREEYYYWGAMDVWGQGTL
VL: DIQMTQSPSSLSASVGDRVTITCRASQSISSYLAWYQQKPGKAPKLLIYGASSRASGVPSRFSGSGSGTDFTLTISSLQPEDFATYYCQQYYSSPLTFGQGTKVEIKR
modifications: sequence is synthesized
The IC50 is the concentration that inhibits the measured activity by half. Consider B3, for which the IC50 with human IGF-1R-ECD (YW95 phage-derived clones displayed as bivalent Fab-Zip on phage, read-out: phage IC50) came out at 20 nM. The “effect on the MCF7 cell viability compared to the media control” value in the assay with MCF7 cells (initial screen, 0.12 to 10 μg/ml) is recorded as “no effect”. In the assay with IGF-1R, the IGF-1R down-regulation entry is “rapidly down-regulated and reached maximal reduction by eight hours”.

B4: murine 2B4 Fab (Fab, V domains shown)
VH: QIQLVQSGPELKKPGETVKISCKASGYNLANYGLNWVKQAPGEGLKWMGWINTNTGAPTYAEEFKGRFVFFLETSASTAYLQINNLSDEDTATYFCARSIYYYASRYFNVWGAGTS
VL: DIQMTQTTSSLSASLGDKVTISCRASQDISNYLNWYQQKPDGTIKLLIYYTSRLHSGIPSRFSGSGSGTDYSLTISNLEQEDIATYFCQQGNTLPWTFGGGTKVEIKR
Consider B4, for which the Kd in assay [1] was found to be 24 nM.

B5: chimeric 9F2: human chimeric version of murine 9F2, human IgG1 (antibody, V domains shown)
VH: QIQLVQSGPELKKPGETVKISCKASGYTLANYGMNWVKQAPGKGFKWMGWINTNTGKPTYSDEFKGRFVFSLETSASTAYLLINNLSNEDTATYFCARSIYYYGSRYFNVWGAGTT
VL: DIQMTQSTSSLSASLGDRVTISCRASQDINNYLTWYQQKPDGTVKLLIYYTSRLHSGVPSRFSGSGSGTDYSLTITNLEQEDFATYFCQQGNTLPWTFGEGTKVEIKR
For the molecule B5, the “binding to human versus cyno IGF-1R” value in the assay with cynomolgus-monkey IGF-1R was “comparable for human and cyno IGF-1R”. The “comparison of inhibitory effect on MCF7 proliferation / viability” value in the assay with MCF7 cells was “equivalent at decreasing the MCF7 cell viability”. The IGF-1R down-regulation result in the assay with IGF-1R is “rapidly down-regulated and reached maximal reduction by eight hours”.

B6: chimeric 2B4: human chimeric version of murine 2B4 (antibody, V domains shown)
VH: QIQLVQSGPELKKPGETVKISCKASGYNLANYGLNWVKQAPGEGLKWMGWINTNTGAPTYAEEFKGRFVFFLETSASTAYLQINNLSDEDTATYFCARSIYYYASRYFNVWGAGTS
VL: DIQMTQTTSSLSASLGDKVTISCRASQDISNYLNWYQQKPDGTIKLLIYYTSRLHSGIPSRFSGSGSGTDYSLTISNLEQEDIATYFCQQGNTLPWTFGGGTKVEIKR
Take B6: the “comparison of inhibitory effect on MCF7 proliferation / viability” value in the assay with MCF7 cells was “equivalent at decreasing the MCF7 cell viability”. The IGF-1R down-regulation result in the assay with IGF-1R is “rapidly down-regulated and reached maximal reduction by eight hours”.

B7: h9F2.vX: humanized anti-IGF-1R antibody, direct HVR graft of murine 9F2; VL SEQ ID NO:49, VH SEQ ID NO:51 (antibody, V domains shown)
VH: EVQLVESGGGLVQPGGSLRLSCAASGYTLANYGMNWVRQAPGKGLEWVGWINTNTGKPTYSDEFKGRFTISADTSKNTAYLQMNSLRAEDTAVYYCARSIYYYGSRYFNVWGQGTL
VL: DIQMTQSPSSLSASVGDRVTITCRASQDINNYLTWYQQKPGKAPKLLIYYTSRLHSGVPSRFSGSGSGTDFTLTISSLQPEDFATYYCQQGNTLPWTFGQGTKVEIKR
modifications: sequence is synthesized
In the case of B7, the IC50 in the assay with human IGF-1R-ECD (humanized hybridoma-derived clones displayed on phage as monovalent Fab, read-out: binding affinity (phage IC50) against IGF-1R-ECD) was determined as 60 nM. Besides, the “binding to human versus cyno IGF-1R” value in the assay with cynomolgus-monkey IGF-1R is “comparable for human and cyno IGF-1R”.
